Experiment [1] has as its target SARS-CoV-2 PLpro TR (truncated form lacking the Ubl domain) (SARS-CoV-2).
The target of experiment [2] is SARS-CoV-2 papain-like protease (PLpro) wild type (SARS-CoV-2).

In experiment [1], “human ISG15 (interferon-stimulated gene product 15) (from UniProt P05161 1-157) (natural protein)” displayed an IC50 of free ISG15 for inhibition of ISG15-AMC cleavage of 2050 nM and an IC50 of free ISG15 for inhibition of Ub-AMC cleavage of 1060 nM. In experiment [2], this substance came in with an IC50 of free ISG15 for inhibition of ISG15-AMC cleavage of 2050 nM and an IC50 of free ISG15 for inhibition of Ub-AMC cleavage of 1590 nM.

The values above are taken from article PMC12495856.
